Numbered stars: 1 amine (or outer) side, 2 acyl side, 3 side chain; on linkers, the order of the positions; unused ones are H or OH. Square brackets hold non-standard residues; d marks the D form. Primed or numbered codes have the meaning given here. Ends that are not written are not given here. * marks the point of attachment. Trp(For)″ = Trp(CHO), O=Cn1cc(C[C@H](N[*:1])C(=O)[*:2])c2ccccc21; Phe(3-CF3) = N[C@@H](Cc1cccc(C(F)(F)F)c1)C(=O)O; Phe(3,4-F2) = N[C@@H](Cc1ccc(F)c(F)c1)C(=O)O; Phe(4-CN) = N#Cc1ccc(C[C@H](N)C(=O)O)cc1; Phe(4-Cl) = N[C@@H](Cc1ccc(Cl)cc1)C(=O)O; Phe(3-F) = N[C@@H](Cc1cccc(F)c1)C(=O)O; Phe(4-F) = N[C@@H](Cc1ccc(F)cc1)C(=O)O; Phe(2-F) = N[C@@H](Cc1ccccc1F)C(=O)O; Arg(Me) = CNC(=N)NCCC[C@H](N)C(=O)O; Fmoc = O=C(OCC1c2ccccc2-c2ccccc21)*; 2Pal = N[C@@H](Cc1ccccn1)C(=O)O; 3Pal = N[C@@H](Cc1cccnc1)C(=O)O; Cha = N[C@@H](CC1CCCCC1)C(=O)O; Arg(Et)′ = not defined here; Dab = NCC[C@H](N)C(=O)O; azaGly = NNC(=O)O
Biological target: T1, human OT7T175 (metastin receptor) (human, UniProt Q969F8 1-398)
T1 construct: expressed on CHO cells (hOT7T175-expressed CHO cells; hOT7T175/CHO); also called hOT7T175; h0T7T175
Test: FMAT competition with Cy-5-labeled metastin (40-54), hOT7T175-expressed CHO cells
Procedure: h0T7T175-Expressed CHO cells were cultured in MEM-α medium (nucleic acid-free) containing 10% dialyzed serum. The medium was removed and the adherent cells were washed with PBS. Then, PBS containing 5 mM EDTA was added and the cells were scraped from a flask with a cell scraper. […] To each well of a 96-Well Black Clear Bottom Plate (Applied Biosystems, Inc.), 10 μL of assay buffer containing 1% dimethylsulfoxide was added to examine total binding, 10 μL of 10 μM non-labeled peptide (having the same amino acid sequence as that of the labeled one) solution diluted with assay buffer to examine non-specific binding, and 10 μL of a test compound diluted with assay buffer to examine the binding inhibition activity of the test compound, respectively. Furthermore, 90 μL each of the cell suspension was dispensed to each well. […] The specific binding is a value obtained by subtracting the non-specific binding from the total binding.

T1 sequence (Q969F8 whole entry L364H): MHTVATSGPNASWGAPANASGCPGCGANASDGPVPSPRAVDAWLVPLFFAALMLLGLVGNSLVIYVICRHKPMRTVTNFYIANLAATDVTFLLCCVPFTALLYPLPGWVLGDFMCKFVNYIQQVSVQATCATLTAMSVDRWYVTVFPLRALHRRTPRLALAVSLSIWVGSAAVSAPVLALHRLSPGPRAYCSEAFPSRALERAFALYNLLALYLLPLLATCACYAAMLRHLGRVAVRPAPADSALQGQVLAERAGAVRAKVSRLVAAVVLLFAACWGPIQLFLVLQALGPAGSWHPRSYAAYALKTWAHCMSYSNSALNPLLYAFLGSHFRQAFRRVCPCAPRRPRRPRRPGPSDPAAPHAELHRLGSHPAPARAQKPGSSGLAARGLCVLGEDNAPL

[dY]NWNSFGL[Arg(Me)]F-NH2 (also: Gly7-Leu8 bond reduced (CH2NH)) [Compound No. 307: [7Ψ8,CH2NH,D-Tyr1,Arg(Me)9]MS10]
IC50: 64 nM

[dY]N[dW]NSF[azaGly]LR(Me)F-NH2 [Compound No. 236: (D-Tyr1,D-Trp3,AzaGly7,Arg(Me)9]MS10]
IC50: 42 nM

YNWNSFGLR[Phe(2-F)]-NH2 [Compound No. 19: [Phe(2F)10]MS10]
IC50: 8.6 nM

[dY]N[dW]NSFGL[Arg(Me)]F-NH2 [Compound No. 142: [D-Tyr1,D-Trp3,Arg(Me)9]MS10]
IC50: 26 nM

B1: Compound No. 251: [D-Tyr1,Pya(3) 3,AzaGly7,Arg(Me)9]MS10 (peptide)
peptide: [dY]N[3Pal]NSF[azaGly]L[Arg(Me)]F-NH2
modifications: N-terminus assumed
SMILES: CNC(=N)NCCC[C@H](NC(=O)[C@H](CC(C)C)NC(=O)NNC(=O)[C@H](Cc1ccccc1)NC(=O)[C@H](CO)NC(=O)[C@H](CC(N)=O)NC(=O)[C@H](Cc1cccnc1)NC(=O)[C@H](CC(N)=O)NC(=O)[C@H](N)Cc1ccc(O)cc1)C(=O)N[C@@H](Cc1ccccc1)C(N)=O
IC50: 87 nM

YNWNSFGL[Arg(Me)]F-NH2 [Compound No. 82: [Arg(Me)9]MS10]
IC50: 4.1 nM

YNWNSFGLR[Phe(4-CN)]-NH2 [Compound No. 77: [Phe(4CN)10]MS10]
IC50: 7.4 nM

YNWNSFGLR[Phe(3-F)]-NH2 [Compound No. 197: [Phe(3F)10]MS10]
IC50: 170 nM

YNWNSFGLR[Phe(4-F)]-NH2 [Compound No. 61: [Phe(4F)10]MS10]
IC50: 13 nM

B2: Compound No. 275: des(1-2)-Acetyl-[Arg3,AzaGly7,Arg(Me)9]MS10 (peptide)
peptide: Ac-RNSF[azaGly]L[Arg(Me)]F-NH2
SMILES: CNC(=N)NCCC[C@H](NC(=O)[C@H](CC(C)C)NC(=O)NNC(=O)[C@H](Cc1ccccc1)NC(=O)[C@H](CO)NC(=O)[C@H](CC(N)=O)NC(=O)[C@H](CCCNC(=N)N)NC(C)=O)C(=O)N[C@@H](Cc1ccccc1)C(N)=O
IC50: 410 nM

B3: Compound No. 276: des(1-2)-Acetyl-[Thr3,AzaGly7,Arg(Me)9]MS10 (peptide)
peptide: Ac-TNSF[azaGly]L[Arg(Me)]F-NH2
SMILES: CNC(=N)NCCC[C@H](NC(=O)[C@H](CC(C)C)NC(=O)NNC(=O)[C@H](Cc1ccccc1)NC(=O)[C@H](CO)NC(=O)[C@H](CC(N)=O)NC(=O)[C@@H](NC(C)=O)[C@@H](C)O)C(=O)N[C@@H](Cc1ccccc1)C(N)=O
IC50: 480 nM

B4: Compound No. 285: [D-Tyr1,Pya(2) 3,AzaGly7,Arg(Me)9]MS10 (peptide)
peptide: [dY]N[2Pal]NSF[azaGly]L[Arg(Me)]F-NH2
modifications: N-terminus assumed
SMILES: CNC(=N)NCCC[C@H](NC(=O)[C@H](CC(C)C)NC(=O)NNC(=O)[C@H](Cc1ccccc1)NC(=O)[C@H](CO)NC(=O)[C@H](CC(N)=O)NC(=O)[C@H](Cc1ccccn1)NC(=O)[C@H](CC(N)=O)NC(=O)[C@H](N)Cc1ccc(O)cc1)C(=O)N[C@@H](Cc1ccccc1)C(N)=O
IC50: 40 nM

YNWNSF[azaGly]L[Arg(Me)]F-NH2 (also: Tyr1-Asn2 bond reduced (CH2NH)) [Compound No. 299: [1Ψ2,CH2NH,AzaGly7,Arg(Me)9]-MS10]
IC50: 1.2 nM

B5: Compound No. 145: des(1-2)-Fmoc-[Arg(Me)9]MS10 (peptide)
peptide: Fmoc-WNSFGL[Arg(Me)]F-NH2
SMILES: CNC(=N)NCCC[C@H](NC(=O)[C@H](CC(C)C)NC(=O)CNC(=O)[C@H](Cc1ccccc1)NC(=O)[C@H](CO)NC(=O)[C@H](CC(N)=O)NC(=O)[C@H](Cc1c[nH]c2ccccc12)NC(=O)OCC1c2ccccc2-c2ccccc21)C(=O)N[C@@H](Cc1ccccc1)C(N)=O
IC50: 120 nM

[dY]NWNSFGL[Arg(Me)]F-NH2 (also: Phe6-Gly7 bond reduced (CH2NH)) [Compound No. 308: [6Ψ7, CH2NH,D-Tyr1,Arg(Me)9]MS10]
IC50: 350 nM

YNWNSFGLRX (Pya(3)10; C-terminal amide) [Compound No. 60: [Pya(3)10]MS10]
IC50: 170 nM

YNWNSFGLR(Et)F-NH2 [Compound No. 220: [Arg(Et)9]MS10]
IC50: 330 nM

YNWNYFGLRF-NH2 [Compound No. 23: [Tyr5]MS10]
IC50: 400 nM

[dY]NSNSF[azaGly]L[Arg(Me)]F-NH2 [Compound No. 191: [D-Tyr1,Ser3,AzaGly7,Arg(Me)9]MS10]
IC50: 300 nM

[dY]NTNSF[azaGly]L[Arg(Me)]F-NH2 [Compound No. 221: [D-Tyr1,Thr3,AzaGly7,Arg(Me)9]MS10]
IC50: 95 nM

YNANSFGLRF-NH2 [Compound No. 67: [Ala3]MS10]
IC50: 27 nM

YNWNSFGLKF-NH2 [Compound No. 44: [Lys9]MS10]
IC50: 190 nM

YLWNSFGLRF-NH2 [Compound No. 59: [Leu2]MS10]
IC50: 340 nM

YYWNSFGLRF-NH2 [Compound No. 58: [Tyr2]MS10]
IC50: 16 nM

ANWNSFGLRF-NH2 [Compound No. 72: [Ala1]MS10]
IC50: 540 nM

YNWNSFGLR[Trp(For)″]-NH2 (also called [Trp(CHO)10]MS10) [Compound No. 186: [Trp(For)10]MS10]
IC50: 460 nM

[dY]N[dA]NSF[azaGly]L[Arg(Me)]F-NH2 [Compound No. 252: [D-Tyr1,D-Ala3,AzaGly7,Arg(Me)9]MS10]
IC50: 580 nM

LNWNSFGLRF-NH2 [Compound No. 73: [Leu1]MS10]
IC50: 220 nM

[dY]NPNSF[azaGly]L[Arg(Me)]F-NH2 [Compound No. 253: [D-Tyr1,Pro3,AzaGly7,Arg(Me)9]MS10]
IC50: 27 nM

YNSNSFGLRF-NH2 [Compound No. 69: [Ser3]MS10]
IC50: 83 nM

YNKNSFGLRF-NH2 [Compound No. 71: [Lys3]MS10]
IC50: 66 nM

YDWNSFGLRF-NH2 [Compound No. 57: [Asp2]MS10]
IC50: 100 nM

YNLNSFGLRF-NH2 [Compound No. 68: [Leu3]MS10]
IC50: 7.7 nM

YNWNSYGLRF-NH2 [Compound No. 150: [Tyr6]MS10]
IC50: 320 nM

YNWNSFGVRF-NH2 [Compound No. 107: [Val8]MS10]
IC50: 120 nM

YNDNSFGLRF-NH2 [Compound No. 70: [Asp3]MS10]
IC50: 200 nM

{D‑Glucuronyl}-NSF[azaGly]L[Arg(Me)]F-NH2 [Compound No. 328: des(1-3)-D-Glucuronyl-[AzaGly7,Arg(Me)9]MS10]
IC50: 470 nM

[dY]NWNSFGL[Arg(Et)′]F-NH2 [Compound No. 192: [D-Tyr1,Arg(Et)9]MS10]
IC50: 530 nM

[dY]N[Cha]NS[Cha]GL[Arg(Me)]F-NH2 [Compound No. 181: [D-Tyr1,Cha3,6,Arg(Me)9]MS10]
IC50: 19 nM

[dW]NSFGL[Arg(Me)]F-NH2 [Compound No. 223: des(1-2)-[D-Trp3,Arg(Me)9]MS10]
IC50: 760 nM

YNWNSFGLR[Phe(3-CF3)]-NH2 [Compound No. 200: [Phe(3CF3)10]MS10]
IC50: 340 nM

[dY][dN][Cha]NSF[azaGly]L[Arg(Me)]F-NH2 [Compound No. 283: [D-Tyr1,D-Asn2,Cha3,AzaGly7,Arg(Me)9]MS10]
IC50: 0.69 nM

YNWNSFGLR[Phe(4-Cl)]-NH2 [Compound No. 130: [Phe(4Cl)10]MS10]
IC50: 42 nM

NWNSFGLRF-NH2 (also called human metastin 9 (46-54)) [Compound No. 4: des(1)-MS10]
IC50: 260 nM

[dN][dW]NSFGL[Arg(Me)]F-NH2 [Compound No. 225: des(1)-[D-Asn2,D-Trp3,Arg(Me)9]MS10]
IC50: 410 nM

[dY]TNSFGL[Arg(Me)]F-NH2 [Compound No. 227: des(1)-[D-Tyr2,Thr3,Arg(Me)9]MS10]
IC50: 48 nM

[dY]INSF[azaGly]L[Arg(Me)]F-NH2 [Compound No. 240: des(1)-[D-Tyr2,Ile3,AzaGly7,Arg(Me)9]MS10]
IC50: 17 nM

[dY]SNSF[azaGly]L[Arg(Me)]F-NH2 [Compound No. 239: des(1)-[D-Tyr2,Ser3,AzaGly7,Arg(Me)9]MS10]
IC50: 120 nM

[dY]SNSFGL[Arg(Me)]F-NH2 [Compound No. 226: des(1)-[D-Tyr2,Ser3,Arg(Me)9]MS10]
IC50: 100 nM

YNWNSFGLR[Phe(3,4-F2)]-NH2 [Compound No. 198: [Phe(3,4F2)10]MS10]
IC50: 170 nM

[dY]NWNSF[azaGly]L[Arg(Me)][Phe(4-F)]-NH2 [Compound No. 318: [D-Tyr1,AzaGly7,Arg(Me)9,Phe(4F)10]MS10]
IC50: 0.99 nM

YNWNSFGL[Dab]F-NH2 [Compound No. 313: [Dab9]MS10]
IC50: 690 nM

Reference: patent US20060241051A1 (Takeda / Millennium, published 2006)
